Assay results as given in patent US20220315670A1 (RESEARCH FOUNDATION FOR THE STATE UNIVERSITY OF NEW YORK, published 2022).
Positions count from the first letter of the chain named. Names may count otherwise. Blank lines part the entries; values can stand above or below the binder they belong to.

What was measured:
[1] = target: T1, trastuzumab (Herceptin); assay: ELISA screen of colony lysate on coated trastuzumab, 40 h with 1 uM 1HE, high-affinity panning
T1 construct: also called Tmab; not shown: the constant regions

[2] = target: T1, trastuzumab (Herceptin); assay: dissociation ELISA on covalently immobilised trastuzumab, 500 nM trastuzumab in the buffer
Description: (§1) Individual mutants were expressed and purified using a nickel chromatography resin, as previously described (16). […] The following day, unreacted sites were blocked with 10 mM ethanolamine in a 100 mM sodium bicarbonate buffer pH 9.5 for one hour. Purified mutants were incubated for one hour and subsequently washed three times with wash buffer. Following washing, 0.1% BSA PBS solution was added to the initial timepoint wells. […] At individual time points, the buffer in the time point wells was removed by pipetting, and the wells washed three times with wash buffer and 0.1% BSA PBS added. At the terminal time point, all wells were washed three times with wash buffer, and secondary antibodies added at the dilutions listed above for one hour at room temperature. Following secondary incubation, plates were washed three times with wash buffer and three times with dH₂O. 250 μl of 4 mg/ml PnPP in a 10 mM diethanolamine pH 9.8 buffer was added to each well, and absorbance values read for 10 minutes at 30-second intervals. The change in absorbance per minute for each well was divided by the average change in absorbance per minute for the initial time point wells, and the resulting dissociation curves fit to a monoexponential decay function in GraphPad Prism 7 (GraphPad, San Diego, Calif.). Each time point was run in triplicate for each mutant.

[3] = target: T1, trastuzumab (Herceptin); assay: ELISA screen of colony lysate on coated trastuzumab, low-affinity panning
[4] = target: T1, trastuzumab (Herceptin); assay: dissociation ELISA, trastuzumab covalently immobilized, 1 uM 1HE in buffer to block rebinding, monoexponential fit
Description: as §1

[5] = target: T1, trastuzumab (Herceptin); assay: dissociation ELISA on covalently immobilised trastuzumab, 1 uM 1HE in the buffer
Description: as §1

[6] = target: T1, trastuzumab (Herceptin); assay: dissociation ELISA on covalently immobilised trastuzumab
Description: as §1

[7] = target: T1, trastuzumab (Herceptin); assay: competition on SKOV3 cells, 125I-trastuzumab with increasing 1HE, cell-associated radioactivity
Description: Points represent the mean of triplicate samples with standard deviation error bars.
(§2) SKOV3 cells (ATCC, HTB-77) were grown in complete McCoys 5a media to confluency in a T75 flask and dissociated using 50 μM EDTA. […] Cells were incubated at 4° C. for 90 minutes to reach binding equilibrium followed by 4 washes with 1 mL of 1% BSA PBS buffer to remove non-specific radioactivity. Cell-associated radioactivity was assessed through gamma counting.

[8] = target: T1, trastuzumab (Herceptin); assay: SPR, trastuzumab immobilized by amine coupling, 1HE at 10, 20 and 35 nM, 1:1 Langmuir fit
Description: (§3) A mobile phase of 0.05% Tween-20 PBS pH 7.4 was used at a flow rate of 25 μL/minute. […] Association and dissociation rate constants were determined using a 1:1 Langmuir binding model in the biosensor data analysis software Scrubber (BioLogic Software, Canberra, Australia).
(§4) An optimal range was 10 pM to 10 nM.

[9] = target: T1, trastuzumab (Herceptin); assay: competition on SKOV3 cells, 200 pM 125I-trastuzumab with increasing 1HE, 4 C, 90 minutes, gamma counting
Description: as §2, §4

[10] = target: T1, trastuzumab (Herceptin); assay: SPR, trastuzumab immobilized by amine coupling, 10-hour dissociation, 1:1 Langmuir fit
Description: as §3, §4

[11] = target: T1, trastuzumab (Herceptin); assay: inferred from the IC50 of the SKOV3 cell competition assay with 200 pM 125I-trastuzumab
Description: as §2, §4

- estimated half-life [1]: 70.8 h
- T1/2 [5]: 187 h
B8: 2A4 (VHH)
VHH: EVQLVESGGGLVQAGDSLTLSCAASGRTFSSVAMGWFRQAPGKERKFVANISWNGDSAYYTDSVKGRFTISRDNAKNTVYLQMSSLKPEDTAVYYCAADVRWTGDGHRADYWGQGTQVTVSS
notes: also called 1HE mutant 2A4

- T1/2 [5]: 84.1 h
B9: 2C4 (VHH)
VHH: B8 VHH with A58T, T103A, Q117L
notes: also called 1HE mutant 2C4

- estimated half-life [1]: 29.6 h
- T1/2 [5]: 8.8 h
B10: 2D11 (VHH)
VHH: B8 VHH with A58T, K76R
notes: also called 1HE mutant 2D11

- estimated half-life [1]: 17.7 h
B11: 2E11 (VHH)
VHH: B8 VHH with A58T, K87E
notes: also called 1HE mutant 2E11

- estimated half-life [1]: 30.8 h
- T1/2 [5]: 55.5 h
B12: 2F9 (VHH)
VHH: B8 VHH with A58T, D105E
notes: also called 1HE mutant 2F9

- estimated half-life [1]: 15.7 h
B13: 2G2 (VHH)
VHH: B8 VHH with A58T, Y111N

- estimated half-life [1]: 26.9 h
- T1/2 [5]: 5.4 h
B14: 2H2 (VHH)
VHH: B8 VHH with G9D, T28A, A58T
notes: also called 1HE mutant 2H2

- T1/2 [6]: 17.4 h
- IC50 [7]: 0.129 nM
- Kd [8]: 0.0335 nM
- IC50 [9]: 0.122 nM
- half-life of dissociation [10]: 26.6 h
- Kd [11]: ≤ 0.122 nM
B15: 1HE, anti-idiotypic camelid single domain antibody against trastuzumab (VHH)
VHH: B8 VHH with A58T
notes: also called wild-type 1HE; cold-1HE

Second part, the binder before the results:

B1: 2D7 (VHH)
VHH: B8 VHH with A58T, T103A
- estimated half-life [1]: 43.5 h

B2: 1C3 (VHH)
VHH: B8 VHH with A58T, A97V
- T1/2 [2]: 12.1 h

B3: 1E10 (VHH)
VHH: B8 VHH with D16A, S17G, A58T
notes: also called 1HE mutant 1E10
- estimated half-life [3]: 19.3 h

B4: 1F3 (VHH)
VHH: B8 VHH with D56Y, A58T
- T1/2 [2]: 5.1 h

B5: 1G1 (VHH)
VHH: B8 VHH with N54D, D56G, A58T, N74S
- T1/2 [2]: 12.1 h

B6: 1G11 (VHH)
VHH: B8 VHH with G10D, S31G, D56V, A58T
- T1/2 [2]: 35.1 h

B7: 1HE mutant 2E10 (L18Q, T103A) (VHH)
VHH: B8 VHH with L18Q, A58T, T103A
- estimated half-life [1]: 35.7 h
- estimated binding half-life [4]: 482 h
